How the values were obtained:
[1] = Active two-dimensional gel electrophoresis (isoelectric point); assay type: physicochemical; conditions: partially purified crude extracts of CCRI-10035 heated at 80° C. for 1 h; 2D gel
Procedure: Protein concentration was measured by the method of Bradford. An 18 cm Immobiline™ pH 4-7 DryStrip was applied. Proteins (200 μg) were diluted in T8 buffer (7 M Urea, 3% W/V CHAPS; 3-[(3-cholamidopropyl)dimethylammonio]-1-propanesulfonate, 20 mM DTT; dithiothreitol, 5 mM TCEP; tris(2-carboxyethyl)phosphine hydrochloride) and precipitated with 2-D clean-up kit (Amersham Biosciences) to remove substances interfering with isoelectric focusing (IEF) such as detergents, salts, lipids, phenolic and nucleic acids. IEF was carried out using IPTGhor IEF system (Amersham Biosciences) for the first dimension as recommended by the manufacturer. After first dimension, the strip was cut 5 cm from (+) terminal and 7 cm from (−) terminal. The cut strip was linked with agarose onto 12% SDS-PAGE containing 20 μg/ml dsDNA calf thymus DNA (Calbiochem). Markers and proteins were prepared according to the manufacturer's instructions on Whatman paper and run alongside the cut strip. After electrophoresis, the gel was rinsed with water, and placed into the gel incubation buffer (20 mM Tris-HCl, pH 9.08, 20 mM MgCl2). Two hours later, the gel was rinsed again and incubated in the gel incubation buffer overnight at 37° C. […] Trypsin fragmentation results were analyzed using Mascot software (Matrix Science) for peptide identification. […]

[2] = system: plasmid DNA pET-24a(+) (closed circular double stranded); experiment: Assay of nuclease activity, substrate specificity: plasmid DNA; conditions: no metal ion added
Procedure: (§1) Standard (20 μl) reaction mixture contained 2 μg of calf thymus dsDNA in activity buffer (20 mM Tris-HCl, 20 mM MgCl2 at pH 7.24). When required, several concentrations of alternative divalent cations, BaCl2, CaCl2, NaCl, MnSO4, NiSO4, MgCl2, CoCl2, KCl, were tested and the effects of other compounds (0.1, 0.25, 0.5 and 1 mg/ml BSA, 0.05, 0.1, 0.5 and 1 mM dNTPs, 2, 5, 10, 20, 50, 100 mM EDTA, 5, 15, 30, 50% glycerol, 0.1, 0.25, 0.5 and 1% SDS, and 1, 2, 3, 4, 5, 6, 7 and 8 M urea) were investigated. […] In all cases, the reaction was started by the addition of 2 μl of nickel column purified enzyme, and terminated by adding 4 μl of agarose gel loading buffer (0.1 M EDTA, pH 8.0, 0.05% bromophenol blue, 50% glycerol). Nuclease activity was evaluated by assessing DNA degradation level on gel electrophoresis (1.2% agarose, with 0.25 μg/ml of ethidium bromide, at 170 V for 30 min, in Tris-borate EDTA buffer).

calf thymus ssDNA = experiment: Assay of nuclease activity, substrate specificity: ssDNA; conditions: no metal ion added
Procedure: as §1

calf thymus dsDNA = experiment: Assay of nuclease activity, DNA degradation level on agarose gel
Procedure: as §1

[3] = digestion of calf thymus dsDNA at 37° C.

B1: Nucyep: thermostable non-specific nuclease from Yersinia enterocolitica subsp. palearctica; 283-amino-acid protein, SEQ ID NO. 6 (protein)
chain: MKFNLIKLLPVLLLTACTTTDHSMSAPKTILSAPTVTEQNLPAAAIDNCLVGCPTGGSDQTVIRDVYTLNNNSHTKFANWVAYKVTKSSQASNHPRKWAQDPDLPDSDTLAPADYTGANQKLAVDRGHQAPLSLLAGNEDSQALNYLSNITPQKAALNQGAWVRLEDQERNLANRPDVTAVYSVTGPLFERHIATLPAKPTVEIPSGYWKIIFIGTSPDKGQYAAFLMDQNTAKSANFCDYQVNVDTIEAKTNPQLTIWSNLPADVAQIIKSQKGTLAQTIGCD
modifications: Yersinia enterocolitica sub. paleartica
Isoelectric point of the spot with heat-stable nuclease activity [1]: about 5.2 | Nuclease activity on plasmid (circular ds) DNA without addition of metal ions [2]: but not the circular dsDNA or RNA | Nuclease activity on ssDNA without addition of metal ions (calf thymus ssDNA): able to degrade | Effect of 2 mM Ca2+ on nuclease activity (calf thymus dsDNA; 2 mM Ca2+): inhibited | Effect of 2 mM CuSO4 on nuclease activity (calf thymus dsDNA; 2 mM CuSO4): inhibited | Effect of 2 mM ZnCl2 on nuclease activity (calf thymus dsDNA; 2 mM ZnCl2): inhibited | Effect of 0.1% SDS on nuclease activity (calf thymus dsDNA; 0.1% SDS): inhibited | Effect of 100 mM EDTA on nuclease activity (calf thymus dsDNA; EDTA 100 mM): inhibited | Activity left after heating at 80° C. for 60 minutes (1 h) (calf thymus dsDNA; [3]): ~5% | Activity left after heating at 100° C. for 20 minutes (calf thymus dsDNA; [3]): ~5% | Optimum temperature (calf thymus dsDNA; examined within 0 to 100° C.): about 35 °C | Activity after exposure to longer times at 100° C. (calf thymus dsDNA; longer than 20 minutes at 100° C., compared to undigested controls): no remaining nuclease activity | Nuclease activity on dsDNA without addition of metal ions (calf thymus dsDNA; no metal ion added, linear dsDNA): able to degrade

From patent US20160053242A1, “THERMOSTABLE NUCLEASE” (priority 2013, published 2016)
